Test results as given in patent US20240228572A1 (I2O THERAPEUTICS, published 2024).
Where two headings read alike, the source gives them in different places. *1 amine or outer side, *2 acyl side, *3 side chain or, on linkers, in order; H or OH if unused. Bridges are numbered along the chain shown (N, C = ends). Primed or numbered codes have the meaning given here. Where no end group is shown, it is not given here. Side-chain parts run from the residue outwards. [ ]: non-standard residue; d: D form. The star is where a group is joined. dpeg″ = spacer —[CO(CH2)O(CH2)2O(CH2)NH]—, O=C(COCCOCN[*:1])[*:2]; dpeg = —[CO(CH2)O(CH2)2O(CH2)NH]— spacer, O=C(COCCOCN[*:1])[*:2]; C20 diacid = O=C(O)CCCCCCCCCCCCCCCCCCC(=O)*; γGlu = O=C(O)[C@H](CCC(=O)[*:2])N[*:1]; Aib = CC(C)(N)C(=O)O

T1: hGIPR (human, UniProt P48546 22-466)
T1 sequence (looked up): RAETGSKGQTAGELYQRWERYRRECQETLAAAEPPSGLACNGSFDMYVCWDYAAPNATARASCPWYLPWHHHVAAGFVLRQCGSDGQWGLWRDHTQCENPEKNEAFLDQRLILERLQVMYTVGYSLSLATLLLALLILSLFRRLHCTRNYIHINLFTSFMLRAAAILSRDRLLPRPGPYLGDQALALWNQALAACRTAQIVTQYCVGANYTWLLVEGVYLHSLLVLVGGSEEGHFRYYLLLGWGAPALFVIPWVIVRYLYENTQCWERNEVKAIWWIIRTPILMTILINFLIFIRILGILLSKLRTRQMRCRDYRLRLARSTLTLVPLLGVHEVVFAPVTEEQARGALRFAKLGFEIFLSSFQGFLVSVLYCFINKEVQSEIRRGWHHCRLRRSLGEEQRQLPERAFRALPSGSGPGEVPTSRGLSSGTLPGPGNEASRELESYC

B1: Compound A38 (peptide)
peptide: YSHGTFTSDYSKYLD[Aib]KYAEK([γGlu-γGlu-dpeg″-C20 diacid])FVKWLEEEPSSGAPPPS-OH
modifications: lactam 24-28; N-terminus assumed
SMILES: CC(C)C[C@@H]1NC(=O)[C@H](Cc2c[nH]c3ccccc23)NC(=O)[C@@H](NC(=O)[C@@H](NC(=O)[C@H](Cc2ccccc2)NC(=O)[C@H](CCCCNC(=O)CC[C@H](NC(=O)CC[C@H](NC(=O)COCCOCNC(=O)CCCCCCCCCCCCCCCCCCC(=O)O)C(=O)O)C(=O)O)NC(=O)[C@H](CCC(=O)O)NC(=O)[C@H](C)NC(=O)[C@H](Cc2ccc(O)cc2)NC(=O)[C@H](CCCCN)NC(=O)C(C)(C)NC(=O)[C@H](CC(=O)O)NC(=O)[C@H](CC(C)C)NC(=O)[C@H](Cc2ccc(O)cc2)NC(=O)[C@H](CCCCN)NC(=O)[C@H](CO)NC(=O)[C@H](Cc2ccc(O)cc2)NC(=O)[C@H](CC(=O)O)NC(=O)[C@H](CO)NC(=O)[C@@H](NC(=O)[C@H](Cc2ccccc2)NC(=O)[C@@H](NC(=O)CNC(=O)[C@H](Cc2c[nH]cn2)NC(=O)[C@H](CO)NC(=O)[C@@H](N)Cc2ccc(O)cc2)[C@@H](C)O)[C@@H](C)O)C(C)C)CCCCNC(=O)CC[C@@H](C(=O)N[C@@H](CCC(=O)O)C(=O)N2CCC[C@H]2C(=O)N[C@@H](CO)C(=O)N[C@@H](CO)C(=O)NCC(=O)N[C@@H](C)C(=O)N2CCC[C@H]2C(=O)N2CCC[C@H]2C(=O)N2CCC[C@H]2C(=O)N[C@@H](CO)C(=O)O)NC(=O)[C@H](CCC(=O)O)NC1=O
B2: Compound A39 (peptide)
peptide: YSHGTFTSDYSKYLD[Aib]KYAKK([γGlu-γGlu-dpeg″-C20 diacid])FVKWLEEEPSSGAPPPS-OH
modifications: lactam 24-28; N-terminus assumed
SMILES: CC(C)C[C@@H]1NC(=O)[C@H](Cc2c[nH]c3ccccc23)NC(=O)[C@@H](NC(=O)[C@@H](NC(=O)[C@H](Cc2ccccc2)NC(=O)[C@H](CCCCNC(=O)CC[C@H](NC(=O)CC[C@H](NC(=O)COCCOCNC(=O)CCCCCCCCCCCCCCCCCCC(=O)O)C(=O)O)C(=O)O)NC(=O)[C@H](CCCCN)NC(=O)[C@H](C)NC(=O)[C@H](Cc2ccc(O)cc2)NC(=O)[C@H](CCCCN)NC(=O)C(C)(C)NC(=O)[C@H](CC(=O)O)NC(=O)[C@H](CC(C)C)NC(=O)[C@H](Cc2ccc(O)cc2)NC(=O)[C@H](CCCCN)NC(=O)[C@H](CO)NC(=O)[C@H](Cc2ccc(O)cc2)NC(=O)[C@H](CC(=O)O)NC(=O)[C@H](CO)NC(=O)[C@@H](NC(=O)[C@H](Cc2ccccc2)NC(=O)[C@@H](NC(=O)CNC(=O)[C@H](Cc2c[nH]cn2)NC(=O)[C@H](CO)NC(=O)[C@@H](N)Cc2ccc(O)cc2)[C@@H](C)O)[C@@H](C)O)C(C)C)CCCCNC(=O)CC[C@@H](C(=O)N[C@@H](CCC(=O)O)C(=O)N2CCC[C@H]2C(=O)N[C@@H](CO)C(=O)N[C@@H](CO)C(=O)NCC(=O)N[C@@H](C)C(=O)N2CCC[C@H]2C(=O)N2CCC[C@H]2C(=O)N2CCC[C@H]2C(=O)N[C@@H](CO)C(=O)O)NC(=O)[C@H](CCC(=O)O)NC1=O

Experiments:
Experiment in all cases: cell-based or functional assay
[1] = target: T2, human Glucagon receptor (GCGR) (human, UniProt P47871 26-477)
[2] = target: T3, human GLP-1 receptor (GLP-1R) (human, UniProt P43220 24-463)
T3 sequence (P43220 24-463): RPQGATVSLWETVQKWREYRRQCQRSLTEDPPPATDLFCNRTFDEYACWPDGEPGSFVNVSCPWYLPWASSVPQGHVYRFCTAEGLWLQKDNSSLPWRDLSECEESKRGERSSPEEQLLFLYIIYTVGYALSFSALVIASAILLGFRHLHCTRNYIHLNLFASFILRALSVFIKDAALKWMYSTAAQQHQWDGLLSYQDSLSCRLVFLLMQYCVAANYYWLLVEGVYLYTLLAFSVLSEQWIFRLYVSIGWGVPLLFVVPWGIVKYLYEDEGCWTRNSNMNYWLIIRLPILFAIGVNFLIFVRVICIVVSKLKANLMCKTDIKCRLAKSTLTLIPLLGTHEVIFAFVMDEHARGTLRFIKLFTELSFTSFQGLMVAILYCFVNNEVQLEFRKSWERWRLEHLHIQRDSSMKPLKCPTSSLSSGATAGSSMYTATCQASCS

[3] = target: T1, hGIPR
[4] = target: T2, human Glucagon receptor (GCGR); remark: listed apart in the source
[5] = target: cynomolgus monkey Glucagon receptor (GCGR) (cynomolgus monkey)
[6] = target: T3, human GLP-1 receptor (GLP-1R); remark: listed apart in the source
[7] = target: rat Glucagon receptor (GCGR) (rat, UniProt P30082 27-485)
Chain of rat Glucagon receptor (GCGR) (P30082 27-485): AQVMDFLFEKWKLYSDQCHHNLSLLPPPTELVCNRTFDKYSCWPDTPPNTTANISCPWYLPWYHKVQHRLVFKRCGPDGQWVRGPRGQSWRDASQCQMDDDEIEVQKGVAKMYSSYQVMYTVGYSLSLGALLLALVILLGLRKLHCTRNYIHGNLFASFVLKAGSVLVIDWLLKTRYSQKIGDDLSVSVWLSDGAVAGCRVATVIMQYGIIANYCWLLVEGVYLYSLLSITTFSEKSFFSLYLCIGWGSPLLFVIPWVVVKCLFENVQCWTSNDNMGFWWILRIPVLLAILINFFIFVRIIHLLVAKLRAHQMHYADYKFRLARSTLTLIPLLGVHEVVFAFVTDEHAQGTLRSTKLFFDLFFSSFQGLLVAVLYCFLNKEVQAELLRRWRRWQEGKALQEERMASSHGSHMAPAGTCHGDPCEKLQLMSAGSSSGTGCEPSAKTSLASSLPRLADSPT

Binder	pEC50, cAMP accumulation [1]	pEC50, cAMP accumulation [2]	pEC50, cAMP accumulation [3]	pEC50, cAMP accumulation [4]	pEC50, cAMP accumulation [5]	pEC50, cAMP accumulation [6]	pEC50, cAMP accumulation [7]
Ac-YSHGTFTSDYSKYLDK([γGlu-γGlu-dpeg″-C20 diacid])KYAEKFVKWLEDEPSSGAPPPS-OH (lactam 20-24) [Compound A37]	11.5 pEC50 (-log M)	< 9 pEC50 (-log M)					
YSHGTFTSDYSKYLD[Aib]KYAQK([γGlu-γGlu-dpeg-C20 diacid])FV[Aib]WLEDEPSSGAPPPS-OH [Compound A6]	12.2 pEC50 (-log M)	< 7 pEC50 (-log M)	< 9 pEC50 (-log M)	12.2 pEC50 (-log M)	9.77 pEC50 (-log M)	< 7 pEC50 (-log M)	10.3 pEC50 (-log M)
B1	11.4 pEC50 (-log M)	< 9 pEC50 (-log M)					
YSHGTFTSDYSKYLDK([γGlu-γGlu-dpeg-C20 diacid])KYAQEF[Aib]QWLEDEPSSGAPPPS-OH [Compound A7]	10.7 pEC50 (-log M)	< 9 pEC50 (-log M)					
B2	11.7 pEC50 (-log M)	< 9 pEC50 (-log M)					
